The values below come from patent US20230357420A1 (VILLARIS THERAPEUTICS, published 2023).

In one test the target is T1, EGFR (human, UniProt P00533 25-1210).
T1 construct: whole, on cells; Control target on the confirmation array
The test is described as follows: Retrogenix cell microarray: fixed HEK293 cells reverse-transfected with the target, AF647 anti-human IgG detection. The procedure: (§1) Slides were analyzed as above.
(§2) The plasmid samples for control and potential target receptors were then re-arrayed onto new chips for repeat analyses in duplicate. […] Control experiments using the same cells but no primary antibody (FIG. .

The next test addresses T2, CD20 (human, UniProt P11836 1-297).
T2 construct: whole, on cells; Control target; also called MS4A1
T2 sequence (looked up): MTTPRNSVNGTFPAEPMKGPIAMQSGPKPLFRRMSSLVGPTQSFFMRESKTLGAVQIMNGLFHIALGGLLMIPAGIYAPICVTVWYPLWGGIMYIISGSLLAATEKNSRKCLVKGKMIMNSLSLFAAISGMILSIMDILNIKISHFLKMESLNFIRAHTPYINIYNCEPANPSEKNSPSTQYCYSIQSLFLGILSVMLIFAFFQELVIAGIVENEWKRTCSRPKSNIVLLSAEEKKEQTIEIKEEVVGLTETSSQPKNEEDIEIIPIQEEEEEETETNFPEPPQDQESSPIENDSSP
The test is described as above. On the procedure: as §1, §2

The target of the next test is T3, CILP2 (human, UniProt Q8IUL8 21-1156).
T3 construct: whole, on cells; Secreted protein; tether not described; also called cartilage intermediate layer protein 2 (on transfected cells)
T3 sequence (looked up): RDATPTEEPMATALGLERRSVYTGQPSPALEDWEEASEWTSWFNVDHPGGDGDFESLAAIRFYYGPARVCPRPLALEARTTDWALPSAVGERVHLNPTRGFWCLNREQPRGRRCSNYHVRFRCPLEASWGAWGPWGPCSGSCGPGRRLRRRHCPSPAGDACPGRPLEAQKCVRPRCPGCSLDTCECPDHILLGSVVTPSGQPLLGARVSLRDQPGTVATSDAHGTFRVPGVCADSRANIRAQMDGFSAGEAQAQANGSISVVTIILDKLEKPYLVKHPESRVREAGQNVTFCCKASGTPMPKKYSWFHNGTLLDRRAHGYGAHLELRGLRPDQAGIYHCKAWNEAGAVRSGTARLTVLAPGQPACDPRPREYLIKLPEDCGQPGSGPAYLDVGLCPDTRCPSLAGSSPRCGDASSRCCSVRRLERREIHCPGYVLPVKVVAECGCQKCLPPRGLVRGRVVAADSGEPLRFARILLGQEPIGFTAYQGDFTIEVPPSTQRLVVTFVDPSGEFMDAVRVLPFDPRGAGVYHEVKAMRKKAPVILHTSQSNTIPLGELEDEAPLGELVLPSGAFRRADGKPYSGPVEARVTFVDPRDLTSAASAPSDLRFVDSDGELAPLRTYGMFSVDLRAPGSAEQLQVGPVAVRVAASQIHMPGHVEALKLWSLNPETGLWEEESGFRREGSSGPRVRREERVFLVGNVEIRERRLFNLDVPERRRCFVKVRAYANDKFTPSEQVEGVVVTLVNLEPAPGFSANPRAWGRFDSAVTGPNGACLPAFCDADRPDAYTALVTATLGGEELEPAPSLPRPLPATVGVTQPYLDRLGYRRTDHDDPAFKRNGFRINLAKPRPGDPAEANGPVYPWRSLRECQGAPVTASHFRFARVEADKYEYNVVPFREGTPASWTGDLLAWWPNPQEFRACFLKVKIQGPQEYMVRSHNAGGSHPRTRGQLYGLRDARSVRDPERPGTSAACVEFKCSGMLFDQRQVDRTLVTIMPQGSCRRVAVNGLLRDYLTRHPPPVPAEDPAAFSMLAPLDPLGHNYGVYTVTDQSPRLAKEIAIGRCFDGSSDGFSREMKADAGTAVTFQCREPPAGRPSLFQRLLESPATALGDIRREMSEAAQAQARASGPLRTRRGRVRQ
Nature of the test: Retrogenix cell microarray.

Another test has as its target T4, Rhesus CD122 (rhesus monkey, UniProt Q38J85 27-551 (cynomolgus entry)).
T4 construct: also called rhCD122 on cells
T4 sequence: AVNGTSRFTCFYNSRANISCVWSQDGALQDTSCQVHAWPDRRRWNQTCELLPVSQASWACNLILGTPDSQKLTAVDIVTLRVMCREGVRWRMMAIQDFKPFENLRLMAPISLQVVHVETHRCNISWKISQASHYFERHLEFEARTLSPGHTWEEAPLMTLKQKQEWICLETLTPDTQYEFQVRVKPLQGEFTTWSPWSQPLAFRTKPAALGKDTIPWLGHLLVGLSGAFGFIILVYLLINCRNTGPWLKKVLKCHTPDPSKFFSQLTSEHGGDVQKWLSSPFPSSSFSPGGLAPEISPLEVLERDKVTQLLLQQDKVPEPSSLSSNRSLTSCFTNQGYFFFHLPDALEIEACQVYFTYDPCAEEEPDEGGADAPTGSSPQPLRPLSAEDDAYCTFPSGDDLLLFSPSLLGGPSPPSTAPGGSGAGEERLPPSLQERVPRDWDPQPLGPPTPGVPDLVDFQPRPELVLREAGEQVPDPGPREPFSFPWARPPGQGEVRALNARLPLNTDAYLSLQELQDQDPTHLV
The test is described as follows: flow cytometry (FACS) on rhIL15Rβ-transfected CHO-K1 cells, anti-human IgG-FITC, GeoMFI. On the procedure: Purified IgGs were tested in FACs for binding to human and rhesus CD122 expressed on CHO-K1 stable cell lines and CHO-K1 wild-type cells. The IgG samples were titrated in three-fold serial dilutions starting at 500 nM to […]. Binding of IgGs was detected with a mouse anti-human IgG conjugated to FITC. Results were analyzed by examining the Mean Fluorescence Intensity (MFI) of 10000 cells per sample in the BL-1 channel detector of a flow cytometer (AttuneTM NxT Acoustic Focusing Cytometer, Invitrogen/ ThermoFisher Scientific).
For orientation: In flow cytometry, cells or beads pass a laser one at a time.

B1: IgG1-MIKβ1 (humanized) (antibody, V domains shown)
VH: EVQLLESGGGLVQPGGSLRLSCAASGFSVTSYGVHWIRQAPGKGLEWLGVIWSGGSTDYNAAFISRLTISKDNSKNTVYFQMNSLQAEDTAIYYCARAGDYNYDGFAYWGQGTLVTVSS
VL: DIVLTQSPSSLSASVGDRVTITCSGSSSVSFMYWYQQRPGKAPRLLIYDTSNLASGVPSRFSGSGSGTSYTFTISSLQPEDIATYYCQQWSTYPLTFGQGTKVEVK
notes: also called VillMab-1; VillMAB-1
Regarding B1, the results for the binding result in the test with EGFR, in the test with CD20 and with CILP2 were “no binding (tested: 5 µg/ml)”, “no binding (tested: 5 µg/ml)” and “no binding”, respectively. The concentration giving a half-maximal response (EC50 (read off the curve)) – broadly, the concentration needed to bring the measured effect to its halfway point – with Rhesus CD122 is approximately 0.7 nM.
